Measured values: patent US20110183917A1 (UNIVERSITY OF MARYLAND BALTIMORE, published 2011)

T1: synMDMX (synthetic MDMX comprising amino acids 24-108 of the full length MDMX protein) (human, UniProt O15151 24-108)
T1 construct: range 24-108; A biotinylated form was the bait in the phage selections; also called MDM4; biotin-synMDMX
T1 sequence (looked up): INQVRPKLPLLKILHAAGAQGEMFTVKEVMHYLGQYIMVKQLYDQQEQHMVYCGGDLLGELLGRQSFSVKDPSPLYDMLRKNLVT

B1: L-PMI-2 (peptide)
peptide: DDWFQRVWSPLM
notes: Reported only as a phage clone: the 12-mer was fused through a GlyGlyGlySer spacer to the N-terminus of M13 pIII

How the values were obtained:
[1] = target: T1, synMDMX (synthetic MDMX comprising …); assay: SPR competition, immobilized 15-29p53
[2] = target: T2, synMDM2 (synthetic MDM2 comprising amino acids 25-109 of the full length MDM2 protein) (human, UniProt Q00987 25-109); assay: phage display selection, peptide on M13 pIII, biotin-synMDM2 as bait
T2 construct: range 25-109; A biotinylated form (biotin-synMDM2) was the bait in the phage selections; also called biotin-synMDM2
T2 sequence (Q00987 25-109 limits assumed): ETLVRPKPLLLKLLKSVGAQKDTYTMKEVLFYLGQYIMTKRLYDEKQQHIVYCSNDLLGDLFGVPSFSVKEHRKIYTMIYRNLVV

[3] = target: T1, synMDMX (synthetic MDMX comprising …); assay: phage display selection, peptide on M13 pIII, biotin-synMDMX as bait

Row | Binder | fold lower affinity than 15-29p53 [1] | binding result [2] | binding result [3]
1 | CYSFDCLWKCLAMGFSSGKCINSKCKC (designed binder, also called L-Stoppin-1) [stoppin-1] | ~4 fold |  | 
2 | B1 |  | binds | binds
